{"source": "a protein production outcome set (Wang et al. 2014)", "assay": "label from the status in PepcDB records", "data": [{"sequence": "SASFVTSKRDFRARAHSNPLNDAEFLVPEDPLRFDWSPFIPDVGSHPIDYVDLGCGYGGLLCELSIAFPNKYMLGMEIRDRVASYCVTKLEELRRLNSKGYRNIGFIRTNCMKFLPFYFPPSSVEKFFICFPDPHFKKKKHRQRLVSLRFLSEAAYCLRPGGMIYIVTDVEELFAWMTNLFAQHPLFLTMDKELVKQQDVLLPYLLNHTDEAQRMKRRGQDTPYWNVFQRKTVFC", "values": [{"measurement": "protein production", "result": "failed"}]}, {"sequence": "MARPAKLAKISDLFCCTTCPAIDDTCVAPCEGEAPQPFQLHDIPCPPGLHTNLIEPPDMTQNIYDDPIFFQAYSQMGRSLGGLDAAPEWPALQALLPPMNGLRVLDLGCGYGWFSRWASEHGARQVVGLDVSQKMLATARATTSAPNVQYQQEDLEQLRLPACSFDLAYSSLALHYIKDLPGLFAQVYAALVPGARLVFSIEHPIFMAPRNPGWQVDAQGRQSWPVDSYQQEGERVTDWLAEGVIKQHRTLGTLLNTLIDTGFNLRHVQEWGPTAQQIEDLPALAEERERPMLLLVAAQR", "values": [{"measurement": "protein production", "result": "failed"}]}, {"sequence": "MNMNKTYIPKLDDLLGGGVKEGASIMFSASPGVDYEAFGYQMLNGRLDEGTRGFIFTNVEEPESIIYEFRSYGWDIESHIENGNLFFVDGSSPFLGMPSDQRYTVNDYSEIKDVVLNAINDIPGGVGIINNLSVIIDYLGNGDTLEIVEAWNRRASELDVNLVYLFTEWDYEPELIDKLRESMDCVVNLRTIEERVIIGQGFMVANSAWSEPPSTMVLFFVVQPGGVKVYVPKILVTGPYNSGKSSFVRAIATKSVSVDRKALSAFPTTIAMDIGHLEYKGFMADIFGTPGQERFDMILDVLSREAVGAFILLDSTAPETFARAKEMIRKTRAEAIPKVVVANKQDLPGALSPEEIREMMKLGADVPIVPASVTEGWGVRDALDTLLGLLYGGLEHHHHHH", "values": [{"measurement": "protein production", "result": "failed"}]}, {"sequence": "SKKVIGKKRAHAEDDELDPMDPSSYSDAPRGGWVVGLKGVQPRAADTTASGPLFQQRPYPSPGAVLRRNAEVASSQKKKPNSQFTEITKRGDGSDGLGDAD", "values": [{"measurement": "protein production", "result": "failed"}]}, {"sequence": "MDPESIMAADGTDSAPANGGLAMENVCVKENGAVSVETVDTTSESQNENSANSSTLDTIEHVKEAAEGTQVEHVDDSKCMKGEKAQRKPRHEKLSGGKNNSSVHIKKSKEGKSADAKVAASNGSVAPNVQTTNPLKSKSFNGREAQVTKQGKHDSAPAESADGEKVKPKSQKKQAHETSEDDTQSSNSPKADDGKPRKVGALPNYGFSFKCDQRAEKRKEFYVKLEEKTHAKEEEINSMQAKSKETQEAELRMLRKSLNFKATPMPSFYQEPQPPKTELKKIPPTRPKSPKLGRKKTASGADSEETQTPRLGRLSLDERASKDNPTAKGIMPTVDLKKQPVRKSLPRLPSQKTVLPDGKPAPAKAAIIPAKVRPEKKKLEKDAETVNQTSHPTEEEAQVTVSSNADVEDSHETVSPRMNEDRADKSIEVSEAVAVEH", "values": [{"measurement": "protein production", "result": "failed"}]}, {"sequence": "MQQVGFGTWNWVAVIVYLVLMLLVGAYFTKRASQNTDSFFTASGRLPSWAVGFSIYATTLSAITFMSTPEKAFLTDWSYIAGNIAIVAIIPLLIYFYVPFFKKLKVTSAYEYLEARFRPSVRVIGSLLFVLFHLGRVAIVIYLPTLAITAVSDLNPYVVASLVGILCILYTFLGGFEGVVWSDFIQGIILLGGAAAIIILGIIHIKGGMGTVVTDALDHKKLISADNWKFNTAAAAIPIIFLGNIFNNLHQYTASQDVVQRYQASESMSETKKSLWMNGVLALISAPLFYGMGTMLYSFYTHESALPEGFNTSSIVPYLILTEMPPFIAGLLIATIFAAAQSTISSSLNSISACLSVDIKHRIFGKGKEKDEVTFARWMIILSGLFGFGMSIYLIASDSNDLWDLFLLITGLVGVPLAGVFAVGIFTKRTNTLGVICGLALGIIFAYIFNGIGGGNSPFFVSIISFLVAFIFSYLIRIVIPDKKKDIVGLTIFDIKEKSNYVSKIHVKK", "values": [{"measurement": "protein production", "result": "failed"}]}, {"sequence": "LGRITQHIAIKQDITEQVHRFNQLKISEERYRNLMNAVADGIFIHNLQGAFLEVNEAACLSLNYSREELINSYVWDIEVGFSQESLNQLWENVQKGPINTEGMHRRKDGTTFPVDVRLAVFNATGEKLVLAIVRDI", "values": [{"measurement": "protein production", "result": "failed"}]}, {"sequence": "MRIDAHHHLWDLSVRDQPWTSDVPALRRTFTAAELRPALERNAIDATVVVQTIAVPQETPELLALTCTDPQVRAVVGWTDLTEPGIADRLAELREQPGGSALVGIRHGIQDETDPQWPARPEVRRGITSVAAAGLVYDLLVRPDQLPSAVRAVRELPDVRFVLDHAGNPVVSPDGLVSWTALLTDLAECPNVTVKLSGLVTRTGGDPAAALRPYADVLFETMGPDRLMYGSDWPVCLLAAEYDEVVAVAESLTEELSADEREAVFGTTAARWYGIPS", "values": [{"measurement": "protein production", "result": "failed"}]}, {"sequence": "MDYGMYFFEHVTPYETLVRRMERVIASGKTPFQDYFLFESKGFGKVLILDKDVQSTERDEYIYHETLVHPAMLTHPEPKRVLIVGGGEGATLREVLKHPTVEKAVMVDIDGELVEVAKRHMPEWHQGAFDDPRAVLVIDDARAYLERTEERYDVVIIDLTDPVGEDNPARLLYTVEFYRLVKAHLNPGGVMGMQAGMILLTHHRVHPVVHRTVREAFRYVRSYKNHIPGFFLNFGFLLASDAFDPAAFSEGVIEARIRERNLALRHLTAPYLEAMFVLPKDLLEALEKETMVSTDQNPFYVTPEGEARQAPYKG", "values": [{"measurement": "protein production", "result": "not failed"}]}, {"sequence": "MLADHARALDALRSALTPLKAELVAAELESIPVSRLKDVTEGRLRLGAVEAAGFTSVRGVYEAGRYELRQLPGVGEQTADRALAAARQIARAVAETVSVRLDVDHPEPRTTALVVALHRLVEAGPELRRALDAATRLDERLGALLPAARPAGGRLRLALAGRHRREDALAAAAETRDLVAEATARDVPLLLAQASTDLLRDPASDIEAWVDFELRSAEYYSQLAEVSEHRPDAEAGEGFLPSGVAERVHAQPLDDTHRRVSLRGYQSFGARFALAQRRVVLGDEMGLGKTVQAIAALAHLAAEGHSHFLVVCPASVLINWTREIRARSTLRALPVHGADRRDAYEEWRERGGVAVTTFDVLHSLPVPDTEKPGMLVVDEAHYVKNPDTRRAKAVTGWTAHCDRVLFLTGTPMENRVEEFRALVRHLQPALLPAVQGGGVAAGPHAFRKSVAPAYLRRNQQDVLTELPALVQVDEWEELSAADRDAYRKAVAEGNFMAMRRAAYADAEKSAKLGRLRELVAEAADNGLKVVVFSYFREVLATVQQCLGEPVLGPISGGVPAARRQRLVDAFAAIDGHAVLLAQIEAGGTGLNLQAASVVILCEPQVKPTMEHQAVARAHRMGQIRTVQVHRLLATDSVDDRLLRILKNKDRLFDAYARRSDIAEATPDAVDVSDASLARRIVEEEQQRLAARPADQPARTTS", "values": [{"measurement": "protein production", "result": "failed"}]}, {"sequence": "MEGIDMLDIKLIRENPELVKNDLIKRGELEKVKWVDEILKLDTEWRTKLKEINRLRHERNKIAVEIGKRRKKGEPVDELLAKSREIVKRIGELENEVEELKKKIDYYLWRLPNITHPSVPVGKDENDNVPIRFWGKARVWKGHLERFLEQSQGKMEYEILEWKPKLHVDLLEILGGADFARAAKVSGSRFYYLLNEIVILDLALIRFALDRLIEKGFTPVIPPYMVRRFVEEGSTSFEDFEDVIYKVEDEDLYLIPTAEHPLAGMHANEILDGKDLPLLYVGVSPCFRKEAGTAGKDTKGIFRVHQFHKVEQFVYSRPEESWEWHEKIIRNAEELFQELEIPYRVVNICTGDLGYVAAKKYDIEAWMPGQGKFREVVSASNCTDWQARRLNIRFRDRTDEKPRYVHTLNSTAIATSRAIVAILENHQEEDGTVRIPKVLWKYTGFKEIVPVEKKERCCAT", "values": [{"measurement": "protein production", "result": "not failed"}]}, {"sequence": "SAAHQMDSITYSNNVTQQYIQPQSLQDISAVEDEIQNKIEAARQESKQLHAQINKAKHKIQDASLFQMANKVTSLTKNKINLKPNIVLKGHNNKISDFRWSRDSKRILSASQDGFMLIWDSASGLKQNAIPLDSQWVLSCAISPSSTLVASAGLNNNCTIYRVSKENRVAQNVASIFKGHTCYISDIEFTDNAHILTASGDMTCALWDIPKAKRVREYSDHLGDVLALAIPEEPNSENSSNTFASCGSDGYTYIWDSRSPSAVQSFYVNDSDINALRFFKDGMSIVAGSDNGAINMYDLRSDCSIATFSLFRGYEERTPTPTYMAANMEYNTAQSPQTLKSTSSSYLDNQGVVSLDFSASGRLMYSCYTDIGCVVWDVLKGEIVGKLEGHGGRVTGVRSSPDGLAVCTGSWDSTMKIWSPGYQ", "values": [{"measurement": "protein production", "result": "failed"}]}, {"sequence": "MAFLIISLIIMLIGLLRLKINKRSIIGGIFLASGLILSLASLFFELLNLIYLYLPSGDFATLIIAYGILPLIFLLVCGYFIFNSKTMRTKEGKSATAKLSALFGLNLLIAFPALFMLFTFSTKTIPQIIWYILLYILLIDIILCFLFAAYILYSWMSQMIPLQKKIDYIIILGSGVRSEEVPPLLKSRLDKGIEYYQKNPTAKFVVSGGQGADEPVSEAFAMRKYLHSQNIPNHQILFEDKFTTTYENMLFSKRIINEDWSDKEMPPSIIFSTNNYHVLRGSLYAQRVKLKAQGVGGTHSTLFLTYGLNS", "values": [{"measurement": "protein production", "result": "failed"}]}, {"sequence": "MSLIILTRDDEPRIFTPDSDAASPALHSTSPLPDPASASPLHREEKILPKVCNIVSCLSFSLPASPTDSGLASPTIITREGQQFWAKCLIWKYQLYLHGLHKKSDGRRDKQISASPST", "values": [{"measurement": "protein production", "result": "failed"}]}, {"sequence": "MIKKARKFIPFFLIGSLLAEDNGWYMSVGYQIGGTQQFINNKQLLENQNIINSVTQSAINIAGPTTGLITLSSQTVIDALGYGVSNTVGNQLEGISNILNQIGKRKDFYSSRQISSISQQIIGLKGSSDPLKAHSSQITAKLLSNTQSAFDQGIALSTNIISSINSLNPSNNTQEVKKQLQNTAQSMTELLQQIEHSITKTTSTTYAQSLLSNLTDAVNASSNNTAYVSALVNALNTLGVGVFPTTTTTHVVLNPPGQVVFYPTNSILGSTSSNSNNQQQYNNTLLMNTLQGTLSANTQNNPNGCANQVQCLEQFIQNLAPLAATPTSNNQANQQVQAIAQKLQSVAINTLDNNAINNTTYNLNNLHNALNFQAYESTIEQYNNALKQISWISFTEPKNLLKNTSNNYQIGTVTNAQGQNISAYDCMTATGSLSSNASSGISCSATSSTSSTNSFDNSLVATSKVQTINGKEQIGVNSFNLVSQVWSVYNSLKTSEENLQKNANILCANGTQSGTSSCNSSSGGLSISGNAQLQNILSPTSGTTTNTQAKSNAPKLKAMVVVNNEEEAKTANLAQSSGTTTQSPNSTVMGALNTVLQNVSNFQQSIQNAFQNQESNIQAWANAIYNTNGSQSQEMTPNNNQDLRIQLRANFYQLINTINQQVPTDMNALINQSQQTQQTSGSASNNNACASGMSGSNGNWCYQQWSDSKAYYSGLQSALGYQTQATTQSGSNGGNSITYNVQQITLTSNGLLNQIITNLKSVNGGNGASGTGSGNGTSQINTAYQMLTDASDGKLGTYSSSSGSNNGYTPCNSTNGSNKTSGNNCYEPNKQQNATTATATTDSNLQKVYNDAQKIANIIASSGNNKGVENGLKQFFEALKNNSSSLSNLCGNGSSGSSGTTCSGWLINLLGAIPTNGVSDTNNLINLLTEFIKTAGFIQNNDSSVSTSLTSAFQAITSAISQGFQALQNDISPNAILTLLQEITSNTTTIQSFSQTLRQLLGDKTFFMAQQKLIDAMINARNQVQNAQNQANNYGSQPVLSQYAAAKSTQHGMSNGLGVGLGYKYFFGKARKLGLRHYFFFDYGFSEIGLANQSVKANIFAYGVGTDFLWNLFRRTYNTKALNFGLFAGVQLGGATWLSSLRQQIIDNWGSANDIHSTNFQVALNFGVRTNFAEFKRFAKKFHNQGVISQKSVEFGIKVPLINQAYLNSAGADVSYRRLYTFYINYIMGF", "values": [{"measurement": "protein production", "result": "failed"}]}, {"sequence": "MVISLVIVAVTATEIFEIVELPFEKTLSAISVGSLFNFSVAVVSKSGYLGVFGLMALESTFIPVPSEVILPLSGYLVYIHTFTFAAIIADAIVASMVGSFIDYYLGLYIGRPIIVKILGFFYVKEDSLVKAENWIDRWGASSVFFARFIPGIRSLISIPAGMLKMKVWVFALMTFLGSVIWSTILVYIGFKAGPYWSSAVHSFSVILDQIIIDAIFAACLAYIGYFIYLKIKTRTKPSY", "values": [{"measurement": "protein production", "result": "failed"}]}]}
